Measured values: the supplement of paper PMC9428881
± gives the standard error.

Assay: background-corrected fluorescence of 3'-dye-labeled ssDNA relative to brightest sequence (3'-GCGCG) (fraction); higher = brighter dye fluorescence (less quenching)
Summary of the method: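 Light-directed phosphoramidite synthesis on glass slides produced single-stranded DNA carrying a 3' Cy3 or Cy5 dye next to each of 1024 permuted pentamers. After a 2 h acetonitrile wash at r.t., arrays were scanned at 532 or 635 nm both before and after overnight deprotection in ethylenediamine/ethanol. Every value is the mean of 10 features per array over at least 3 syntheses. Fluorescence had unlabeled-oligo background subtracted and was scaled to the brightest sequence.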

Sequence | background-corrected fluorescence (dye: Cy3 (3' terminal)) | background-corrected fluorescence (dye: Cy5 (3' terminal))
TTTTTTGCTCATCATGCGCATTTTTTTTTTTTTTTAGGAT | 0.637 ± 0.019 | 0.463 ± 0.028
TTTTTTGCTCATCATGCTCATTTTTTTTTTTTTTTAGGAG [GAGGA] | 0.597 ± 0.023 | 0.507 ± 0.034
TTTTTTGCTCATCATGCTGATTTTTTTTTTTTTTTAGGAC [CAGGA] | 0.479 ± 0.014 | 0.383 ± 0.033
TTTTTTGCTCATCATGCTGCTTTTTTTTTTTTTTTAGGAA [AAGGA] | 0.648 ± 0.0081 | 0.559 ± 0.021
TTTTTTGCTCATGAGCAGCATTTTTTTTTTTTTTTAGCTT [TTCGA] | 0.551 ± 0.021 | 0.419 ± 0.041
TTTTTTGCTCATGAGCATCATTTTTTTTTTTTTTTAGCTG [GTCGA] | 0.524 ± 0.005 | 0.424 ± 0.058
TTTTTTGCTCATGAGCATGATTTTTTTTTTTTTTTAGCTC [CTCGA] | 0.408 ± 0.042 | 0.323 ± 0.024
TTTTTTGCTCATGAGCATGCTTTTTTTTTTTTTTTAGCTA [ATCGA] | 0.512 ± 0.0099 | 0.4 ± 0.019
TTTTTTGCTCATGATCAGCATTTTTTTTTTTTTTTAGCGT [TGCGA] | 0.679 ± 0.022 | 0.52 ± 0.023
TTTTTTGCTCATGATCATCATTTTTTTTTTTTTTTAGCGG [GGCGA] | 0.716 ± 0.013 | 0.577 ± 0.042
TTTTTTGCTCATGATCATGATTTTTTTTTTTTTTTAGCGC [CGCGA] | 0.65 ± 0.023 | 0.523 ± 0.038
TTTTTTGCTCATGATCATGCTTTTTTTTTTTTTTTAGCGA | 0.708 ± 0.033 | 0.58 ± 0.052
TTTTTTGCTCATGATGAGCATTTTTTTTTTTTTTTAGCCT [TCCGA] | 0.481 ± 0.039 | 0.394 ± 0.083
TTTTTTGCTCATGATGATCATTTTTTTTTTTTTTTAGCCG [GCCGA] | 0.554 ± 0.018 | 0.437 ± 0.029
TTTTTTGCTCATGATGATGATTTTTTTTTTTTTTTAGCCC [CCCGA] | 0.393 ± 0.022 | 0.304 ± 0.018
TTTTTTGCTCATGATGATGCTTTTTTTTTTTTTTTAGCCA [ACCGA] | 0.5 ± 0.028 | 0.394 ± 0.023
TTTTTTGCTCATGATGCGCATTTTTTTTTTTTTTTAGCAT [TACGA] | 0.519 ± 0.039 | 0.405 ± 0.032

Sequence | background-corrected fluorescence (dye: Cy3 (3' terminal)) | background-corrected fluorescence (dye: Cy5 (3' terminal))
TTTTTTGCTCATGATGCTCATTTTTTTTTTTTTTTAGCAG [GACGA] | 0.574 ± 0.018 | 0.42 ± 0.02
TTTTTTGCTCATGATGCTGATTTTTTTTTTTTTTTAGCAC [CACGA] | 0.415 ± 0.019 | 0.328 ± 0.012
TTTTTTGCTCATGATGCTGCTTTTTTTTTTTTTTTAGCAA [AACGA] | 0.579 ± 0.03 | 0.427 ± 0.03
TTTTTTGCTCATGCGCAGCATTTTTTTTTTTTTTTAGATT | 0.565 ± 0.035 | 0.41 ± 0.018
TTTTTTGCTCATGCGCATCATTTTTTTTTTTTTTTAGATG [GTAGA] | 0.552 ± 0.027 | 0.439 ± 0.018
TTTTTTGCTCATGCGCATGATTTTTTTTTTTTTTTAGATC [CTAGA] | 0.464 ± 0.013 | 0.359 ± 0.023
TTTTTTGCTCATGCGCATGCTTTTTTTTTTTTTTTAGATA [ATAGA] | 0.582 ± 0.025 | 0.434 ± 0.019
TTTTTTGCTCATGCTCAGCATTTTTTTTTTTTTTTAGAGT [TGAGA] | 0.598 ± 0.017 | 0.503 ± 0.029
TTTTTTGCTCATGCTCATCATTTTTTTTTTTTTTTAGAGG [GGAGA] | 0.645 ± 0.037 | 0.525 ± 0.055
TTTTTTGCTCATGCTCATGATTTTTTTTTTTTTTTAGAGC [CGAGA] | 0.565 ± 0.022 | 0.435 ± 0.046
TTTTTTGCTCATGCTCATGCTTTTTTTTTTTTTTTAGAGA | 0.633 ± 0.031 | 0.519 ± 0.029
TTTTTTGCTCATGCTGAGCATTTTTTTTTTTTTTTAGACT [TCAGA] | 0.519 ± 0.025 | 0.389 ± 0.039
TTTTTTGCTCATGCTGATCATTTTTTTTTTTTTTTAGACG [GCAGA] | 0.563 ± 0.031 | 0.443 ± 0.033
TTTTTTGCTCATGCTGATGATTTTTTTTTTTTTTTAGACC [CCAGA] | 0.439 ± 0.034 | 0.331 ± 0.02
TTTTTTGCTCATGCTGATGCTTTTTTTTTTTTTTTAGACA [ACAGA] | 0.522 ± 0.06 | 0.383 ± 0.029
TTTTTTGCTCATGCTGCGCATTTTTTTTTTTTTTTAGAAT [TAAGA] | 0.59 ± 0.032 | 0.449 ± 0.024
TTTTTTGCTCATGCTGCTCATTTTTTTTTTTTTTTAGAAG [GAAGA] | 0.5917 ± 0.0049 | 0.456 ± 0.025
